{"source": "paper PMC7013354", "about": "“Selection and Characterization of CSFV-Specific Single-Domain Antibodies and Their Application along with Immunomagnetic Nanobeads and Quantum Dots” (BioMed Research International, 2020)", "details_in_all_cases": "one partner purified", "key": {"[1]": {"target": "T1, E2 of CSFV in infected ST cells and on CSFV virions (Classical swine fever virus, C-strain, UniProt Q96891, strain)", "T1 construct": "also called E2 of CSFV in ST cells", "assay": "pull-down"}, "[2]": {"target": "T1, E2 of CSFV in infected ST cells and on …", "assay": "immunostaining of cells or tissue"}, "[3]": {"target": "T1, E2 of CSFV in infected ST cells and on …", "assay": "far-Western, overlay or dot blot"}}}
{"binder": "recombinant sdAbE2-1 (VHH, also called sdAdE2-1; sdAbE2s) VHH: QVQLLESGGGLVQPGGSLRLSCAASGYSFIDKTMAWVRQAPGKGLEWVSAIRMHNGSTYYADSVKGRFTISRDNSKNTLYLQMNSLRAEDTAVYYCARLSRRIQAKDKAKLKYWGQGTLVTVSS", "values": [{"measurement": "binding result", "setting": "[1]", "result": "binds"}]}
{"binder": "QD-sdAbE2-1 probe (VHH, also called QD605-labeled sdAbE2-1; QDs-sdAbE2-1) VHH: QVQLLESGGGLVQPGGSLRLSCAASGYSFIDKTMAWVRQAPGKGLEWVSAIRMHNGSTYYADSVKGRFTISRDNSKNTLYLQMNSLRAEDTAVYYCARLSRRIQAKDKAKLKYWGQGTLVTVSS", "values": [{"measurement": "binding result", "setting": "[2]", "result": "binds"}]}
{"binder": "AF488-sdAbE2-2 probe (VHH, also called AF488-labeled sdAbE2-2) VHH: DVQLVESGGGLVQAGGSLRLSCTASGFTFDDYAMAWFRQPPGKEREGVSCISSSGGSTWYADSVKGRFTVSRDNAKNTLYLQMNSLKPEDTAMYYCAADWGRLCVVRGPRNEYKYSGQGTQVTVSS", "values": [{"measurement": "binding result", "setting": "[2]", "result": "binds"}]}
{"binder": "recombinant sdAbE2-2 (VHH, also called sdAdE2-2; sdAbE2s) VHH: DVQLVESGGGLVQAGGSLRLSCTASGFTFDDYAMAWFRQPPGKEREGVSCISSSGGSTWYADSVKGRFTVSRDNAKNTLYLQMNSLKPEDTAMYYCAADWGRLCVVRGPRNEYKYSGQGTQVTVSS", "values": [{"measurement": "binding result", "setting": "[3]", "result": "binds"}]}
